# Test results published in patent US20190359712A1 (Daiichi Sankyo, published 2019).
# Key:
# [1] = molecular target: T1, cynomolgus monkey CD3 on cynomolgus monkey PBMC or T cell line HSC-F (cynomolgus monkey, UniProt Q95LI5 22-198); assay: flow cytometry on cynomolgus monkey PBMC
# T1 construct: whole, on cells; Native CD3 complex on monkey T cells; also called cynomolgus monkey CD3 (PBMC); cynomolgus monkey CD3 antigen
# human CD3 on human PBMC [2] = molecular target: T2, human CD3 on human PBMC (human, UniProt P07766 23-207); assay: flow cytometry on human PBMC
# T2 construct: Native CD3 complex on T cells in PBMC; the other chains of the complex are native; also called human CD3 (PBMC)
# human CD3 on human PBMC [3] = molecular target: T2, human CD3 on human PBMC; assay: flow cytometry on human PBMC, Penta-His Alexa Fluor 488 detection (rMFI)
# Description: Commercially available human PBMC (Cellular Technology Ltd. (CTL)) was adjusted to an appropriate concentration with PBS containing 5% FBS. LIVE/DEAD Fixable Near-IR Dead Cell Stain Kit (Thermo Fisher Scientific Inc.) and an anti-CD19 antibody (Beckman Coulter Inc.) were added to the cells, which were then left standing at 4° C. for 30 minutes. The cells were washed twice with PBS containing 5% FBS, then adjusted to a concentration of 1×10⁶ cells/mL with PBS containing 5% FBS, added at a concentration of 100 μL/well to a 96-well U-bottomed microplate, and centrifuged to remove a supernatant. […] The cells were washed twice with PBS containing 5% FBS. Then, Penta-His Alexa Fluor 488 (Qiagen N.V.) diluted with PBS containing 5% FBS was added at a concentration of 30 μL/well, and the plate was left standing at 4° C. for 30 minutes. The cells were washed twice with PBS containing 5% FBS and then resuspended in PBS containing 5% FBS, followed by detection using a flow cytometer (FACSCanto™ II; Becton, Dickinson and Company). The data was analyzed using Flowjo (Tree Star Inc.). The mean fluorescence intensity (MFI) of Alexa Fluor 488 in a fraction free of dead cells and CD19-positive cells was calculated. The MFI value of the scFv-unsupplemented sample was subtracted from the MFI value of the scFv-supplemented sample to calculate a relative value of MFI (rMFI).
# [4] = molecular target: T3, CD3 immobilized on a sensor chip (Example 7)-1-2); assay: SPR (BIAcore T-200), CD3 immobilized, scFv injected at five concentrations; concentration giving 1/2 Rmax
# T3 construct: the text says only 'CD3 immobilized on a sensor chip'; also called human CD3
# Description: Five different concentrations of the scFv were injected into CD3 immobilized on a sensor chip. Rmax was estimated from the resulting response, and the antibody concentration that reached 1/2 thereof was defined as the dissociation constant of the scFv for CD3.
# T1 sequence (Q95LI5 22-198): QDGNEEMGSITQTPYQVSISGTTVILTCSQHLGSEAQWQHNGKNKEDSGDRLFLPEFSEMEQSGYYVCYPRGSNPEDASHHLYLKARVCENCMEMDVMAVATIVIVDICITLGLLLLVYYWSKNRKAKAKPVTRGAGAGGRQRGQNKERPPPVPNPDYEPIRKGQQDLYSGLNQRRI
Binder,binding result [1],binding result (human CD3 on human PBMC [2]),binding result (human CD3 on human PBMC [3]),Kd [4] [nM]
"C3E-7085 (CDR modified humanized anti-CD3 scFv) (scFv, C3E-7036 with arginine for asparagine at position 53 of the VH; the change is already in the entry) scFv: GEVQLVESGGGLVQPGGSLRLSCAASGVTFNYYGMSWIRQAPGKGLEWVASITRSGGRIYYPDSVKGRFTISRENTQKTLYLQMNSLRAEDTAVYYCTLDGRDGWVAYWGQGTLVTVSSGGGGSGGGGSGGGGSNFMLTQPSSVSGVPGQRVTISCTGNTGNIGSNYVNWYQQLPGTAPKLLIYRDDKRPSGVPDRFSGSKSGTSASLAITGFQAEDEADYYCQSYSSGFIFGGGTKLTVLGAAAGAGGDYKDDDDKGAAAHHHHHH",binds,binds,,
C3E-7035 (humanized anti-CD3 scFv) (scFv) scFv: GEVQLVESGGGLVQPGGSLRLSCAASGVTFNYYGMSWIRQAPGKGLEWVASITNSGGRIYYPDSVKGRFTISRENTQKTLYLQMNSLRAEDTAVYYCTLDGRDGWVAYWGQGTLVTVSSGGGGSGGGGSGGGGSMAQAVLTQPSSVSGVPGQRVTISCKRNTGNIGSNYVNWYQQLPGTAPKLLIYRDDKRPSGVPDRFSGSKSGTSASLAITGFQAEDEADYYCQSYSSGFIFGGGTKLTVLGAAAGAGGDYKDDDDKGAAAHHHHHH,binds,,binds,22
C3E-3007 scFv (humanized OKT3 scFv) (scFv) scFv: QVQLVQSGAESKKPGASVKVSCKASGYTFTRYTMHWVRQAPGQGLEWMGYINPSRGYTNYNQKFKDRVTITADKSTSTAYMELSSLRSEDTAVYYCARYYDDHYCLDYWGQGTLVTVSSGGGGSGGGGSGGGGSQIQMTQSPSSLAVSLGERATITCSASSSVSYMNWYQQKPGKAPKRWIYDTSKLASGVPDRFSGSGSGTDFTLTISSLQAEDVATYYCQQWSSNPFTFGQGTKVEIKRGASAAAGSGGDYKDDDDKGAAAHHHHHH,,,binds,400
"C3E-7078 (CDR modified humanized anti-CD3 scFv) (scFv, the change is already in the entry) scFv: GEVQLVESGGGLVQPGGSLRLSCAASGVTFNYYGMSWIRQAPGKGLEWVASITRSGGRIYYPDSVKGRFTISRENTQKTLYLQMNSLRAEDTAVYYCTLDGRDGWVAYWGQGTLVTVSSGGGGSGGGGSGGGGSNFMLTQPHSVSESPGKTVTISCKRNTGNIGSNYVNWYQQHEGSSPTTIIYRDDKRPDGVSDRFSGSIDRSSKSASLTISNLKTEDEADYFCQSYSSGFIFGGGTKLTVLGAAAGAGGDYKDDDDKGAAAHHHHHH",binds,binds,,
"C3E-7086 (CDR modified humanized anti-CD3 scFv) (scFv, C3E-7078 with glycine for aspartic acid at position 52 of the VL; the change is already in the entry) scFv: GEVQLVESGGGLVQPGGSLRLSCAASGVTFNYYGMSWIRQAPGKGLEWVASITRSGGRIYYPDSVKGRFTISRENTQKTLYLQMNSLRAEDTAVYYCTLDGRDGWVAYWGQGTLVTVSSGGGGSGGGGSGGGGSNFMLTQPHSVSESPGKTVTISCKRNTGNIGSNYVNWYQQHEGSSPTTIIYRGDKRPDGVSDRFSGSIDRSSKSASLTISNLKTEDEADYFCQSYSSGFIFGGGTKLTVLGAAAGAGGDYKDDDDKGAAAHHHHHH",binds,binds,,
"C3E-7079 (CDR modified humanized anti-CD3 scFv) (scFv, the change is already in the entry) scFv: GEVQLVESGGGLVQPGGSLRLSCAASGVTFNYYGMSWIRQAPGKGLEWVASITSSGGRIYYPDSVKGRFTISRENTQKTLYLQMNSLRAEDTAVYYCTLDGRDGWVAYWGQGTLVTVSSGGGGSGGGGSGGGGSNFMLTQPHSVSESPGKTVTISCKRNTGNIGSNYVNWYQQHEGSSPTTIIYRDDKRPDGVSDRFSGSIDRSSKSASLTISNLKTEDEADYFCQSYSSGFIFGGGTKLTVLGAAAGAGGDYKDDDDKGAAAHHHHHH",binds,binds,,
"C3E-7095 (CDR modified humanized anti-CD3 scFv) (scFv, C3E-7079 with alanine for aspartic acid at position 52 of the VL; the change is already in the entry) scFv: GEVQLVESGGGLVQPGGSLRLSCAASGVTFNYYGMSWIRQAPGKGLEWVASITSSGGRIYYPDSVKGRFTISRENTQKTLYLQMNSLRAEDTAVYYCTLDGRDGWVAYWGQGTLVTVSSGGGGSGGGGSGGGGSNFMLTQPHSVSESPGKTVTISCKRNTGNIGSNYVNWYQQHEGSSPTTIIYRADKRPDGVSDRFSGSIDRSSKSASLTISNLKTEDEADYFCQSYSSGFIFGGGTKLTVLGAAAGAGGDYKDDDDKGAAAHHHHHH",binds,binds,,
"C3E-7094 (CDR modified humanized anti-CD3 scFv) (scFv, C3E-7079 with serine for aspartic acid at position 52 of the VL; the change is already in the entry) scFv: GEVQLVESGGGLVQPGGSLRLSCAASGVTFNYYGMSWIRQAPGKGLEWVASITSSGGRIYYPDSVKGRFTISRENTQKTLYLQMNSLRAEDTAVYYCTLDGRDGWVAYWGQGTLVTVSSGGGGSGGGGSGGGGSNFMLTQPHSVSESPGKTVTISCKRNTGNIGSNYVNWYQQHEGSSPTTIIYRSDKRPDGVSDRFSGSIDRSSKSASLTISNLKTEDEADYFCQSYSSGFIFGGGTKLTVLGAAAGAGGDYKDDDDKGAAAHHHHHH",binds,binds,,
"C3E-7090 (CDR modified humanized anti-CD3 scFv) (scFv, C3E-7078 with alanine for aspartic acid at position 52 of the VL; the change is already in the entry) scFv: GEVQLVESGGGLVQPGGSLRLSCAASGVTFNYYGMSWIRQAPGKGLEWVASITRSGGRIYYPDSVKGRFTISRENTQKTLYLQMNSLRAEDTAVYYCTLDGRDGWVAYWGQGTLVTVSSGGGGSGGGGSGGGGSNFMLTQPHSVSESPGKTVTISCKRNTGNIGSNYVNWYQQHEGSSPTTIIYRADKRPDGVSDRFSGSIDRSSKSASLTISNLKTEDEADYFCQSYSSGFIFGGGTKLTVLGAAAGAGGDYKDDDDKGAAAHHHHHH",binds,binds,,
"C3E-7089 (CDR modified humanized anti-CD3 scFv) (scFv, C3E-7078 with serine for aspartic acid at position 52 of the VL; the change is already in the entry) scFv: GEVQLVESGGGLVQPGGSLRLSCAASGVTFNYYGMSWIRQAPGKGLEWVASITRSGGRIYYPDSVKGRFTISRENTQKTLYLQMNSLRAEDTAVYYCTLDGRDGWVAYWGQGTLVTVSSGGGGSGGGGSGGGGSNFMLTQPHSVSESPGKTVTISCKRNTGNIGSNYVNWYQQHEGSSPTTIIYRSDKRPDGVSDRFSGSIDRSSKSASLTISNLKTEDEADYFCQSYSSGFIFGGGTKLTVLGAAAGAGGDYKDDDDKGAAAHHHHHH",binds,binds,,
"C3E-7092 (CDR modified humanized anti-CD3 scFv) (scFv, C3E-7079 with glutamine for aspartic acid at position 52 of the VL; the change is already in the entry) scFv: GEVQLVESGGGLVQPGGSLRLSCAASGVTFNYYGMSWIRQAPGKGLEWVASITSSGGRIYYPDSVKGRFTISRENTQKTLYLQMNSLRAEDTAVYYCTLDGRDGWVAYWGQGTLVTVSSGGGGSGGGGSGGGGSNFMLTQPHSVSESPGKTVTISCKRNTGNIGSNYVNWYQQHEGSSPTTIIYRQDKRPDGVSDRFSGSIDRSSKSASLTISNLKTEDEADYFCQSYSSGFIFGGGTKLTVLGAAAGAGGDYKDDDDKGAAAHHHHHH",binds,binds,,
"C3E-7091 (CDR modified humanized anti-CD3 scFv) (scFv, C3E-7079 with glycine for aspartic acid at position 52 of the VL; the change is already in the entry) scFv: GEVQLVESGGGLVQPGGSLRLSCAASGVTFNYYGMSWIRQAPGKGLEWVASITSSGGRIYYPDSVKGRFTISRENTQKTLYLQMNSLRAEDTAVYYCTLDGRDGWVAYWGQGTLVTVSSGGGGSGGGGSGGGGSNFMLTQPHSVSESPGKTVTISCKRNTGNIGSNYVNWYQQHEGSSPTTIIYRGDKRPDGVSDRFSGSIDRSSKSASLTISNLKTEDEADYFCQSYSSGFIFGGGTKLTVLGAAAGAGGDYKDDDDKGAAAHHHHHH",binds,binds,,
"C3E-7087 (CDR modified humanized anti-CD3 scFv) (scFv, C3E-7078 with glutamine for aspartic acid at position 52 of the VL; the change is already in the entry) scFv: GEVQLVESGGGLVQPGGSLRLSCAASGVTFNYYGMSWIRQAPGKGLEWVASITRSGGRIYYPDSVKGRFTISRENTQKTLYLQMNSLRAEDTAVYYCTLDGRDGWVAYWGQGTLVTVSSGGGGSGGGGSGGGGSNFMLTQPHSVSESPGKTVTISCKRNTGNIGSNYVNWYQQHEGSSPTTIIYRQDKRPDGVSDRFSGSIDRSSKSASLTISNLKTEDEADYFCQSYSSGFIFGGGTKLTVLGAAAGAGGDYKDDDDKGAAAHHHHHH",binds,binds,,
"C3E-7088 (CDR modified humanized anti-CD3 scFv) (scFv, C3E-7078 with asparagine for aspartic acid at position 52 of the VL; the change is already in the entry) scFv: GEVQLVESGGGLVQPGGSLRLSCAASGVTFNYYGMSWIRQAPGKGLEWVASITRSGGRIYYPDSVKGRFTISRENTQKTLYLQMNSLRAEDTAVYYCTLDGRDGWVAYWGQGTLVTVSSGGGGSGGGGSGGGGSNFMLTQPHSVSESPGKTVTISCKRNTGNIGSNYVNWYQQHEGSSPTTIIYRNDKRPDGVSDRFSGSIDRSSKSASLTISNLKTEDEADYFCQSYSSGFIFGGGTKLTVLGAAAGAGGDYKDDDDKGAAAHHHHHH",binds,binds,,
"C3E-7093 (CDR modified humanized anti-CD3 scFv) (scFv, C3E-7079 with asparagine for aspartic acid at position 52 of the VL; the change is already in the entry) scFv: GEVQLVESGGGLVQPGGSLRLSCAASGVTFNYYGMSWIRQAPGKGLEWVASITSSGGRIYYPDSVKGRFTISRENTQKTLYLQMNSLRAEDTAVYYCTLDGRDGWVAYWGQGTLVTVSSGGGGSGGGGSGGGGSNFMLTQPHSVSESPGKTVTISCKRNTGNIGSNYVNWYQQHEGSSPTTIIYRNDKRPDGVSDRFSGSIDRSSKSASLTISNLKTEDEADYFCQSYSSGFIFGGGTKLTVLGAAAGAGGDYKDDDDKGAAAHHHHHH",binds,binds,,
